Experimental data reported in patent US20110143993A1, “ENDOTHELIAL BASEMENT MEMBRANE TARGETING PEPTIDE LIGANDS” (The Brigham and Women's Hospital, Inc., priority 2009, published 2011).
No end group written: not given here.

Columns and labels:
[1] = biological target: Matrigel growth factor reduced LDEV free (basement membrane extract rich in collagen IV and laminin); experiment: competition ELISA: synthetic peptide (10^-5-10^-10 M) against 10^9 pfu cognate phage clone on Matrigel-coated plate, anti-M13/ABTS
[2] = biological target: Matrigel growth factor reduced LDEV free (basement membrane extract rich in collagen IV and laminin); experiment: competition of phage-displayed peptide against synthetic peptide on Matrigel
[3] = biological target: human collagen IV (human) (UniProt P02462); experiment: phage titer count of eluted phage, input 10^12/mL p.f.u., against random library R0, n=3

Row | Binder | IC50 [1] | IC50 [2] | fold binding compared to the library (R0), phage titer [3]
1 | KVWSLPQGGGC-NH2 [synthetic peptide modeled after phage clone A-8 (KVWSLPQ with C-terminal GGGC linker, amidated)] | 1200 nM |  | 
2 | KLWVLPKGGGC-NH2 [synthetic peptide modeled after phage clone C-11 (…-Am)] | 117 nM | 114 nM | 
3 | KLWVLPK (peptide, not shown: large carriers) [phage clone C-11 (KLWVLPK displayed on pIII of M13 phage)] |  |  | 900 fold
4 | KIWKLPQGGGC-NH2 [synthetic peptide modeled after phage clone C-10 (KIWKLPQ with C-terminal GGGC linker, amidated)] | 917 nM |  | 
5 | KIFVWPYGGGC-NH2 [synthetic peptide modeled after phage clone A-9 (KIFVWPY with C-terminal GGGC linker, amidated)] | 551 nM |  | 
